# Measurements as given in FireProtDB (doi:10.1021/bi052091o).
# “And” between values parts separate entries of the source, which are not always exact repeats. Equal values may be shown once.
# B1: Fatty acid-binding protein, intestinal wild type, P02693 (protein)
# chain: MAFDGTWKVDRNENYEKFMEKMGINVVKRKLGAHDNLKLTITQEGNKFTVKESSNFRNIDVVFELGVDFAYSLADGTELTGTWTMEGNKLVGKFKRVDNGKELIAVREISGNELIQTYTYEGVEAKRIFKKE
# Settings: Rattus norvegicus; pH 7; 25 °C; Urea; Fluorescence; NaPO4 25 mM; NaCl 75 mM; whole UniProt chain shown
protein,measurement,value
B1,denaturant m value,0.83 kcal/mol/M and 0.74 kcal/mol/M
same,denaturant midpoint (higher = more stable),4.61 M and 4.77 M
same,unfolding free energy,3.82 kcal/mol and 3.54 kcal/mol
